Laboratory results: patent US20080138837A1, “Methods and kits for detecting and measuring ADAMTS13/FXI complexes” (priority 2004, published 2008)
Numbered stars: 1 amine (or outer) side, 2 acyl side, 3 side chain; on linkers, the order of the positions; unused ones are H or OH. * marks the point of attachment. AMC = Cc1cc(=O)oc2cc(N*)ccc12; Suc = O=C(CCC(=O)[*:2])[*:1]

Key:
ADAMTS13/FXI complexes = biological target: T1, ADAMTS13/FXI complexes (Homo sapiens, UniProt P03951+Q76LX8); experiment: Formation of ADAMTS13/FXI complexes in FXI-deficient plasma after addition of FXI (ELISA); assay type: binding; conditions: FXI-deficient plasma diluted 1:8 in ECD, 30 minutes, FIG. 25
T1 construct: addition of FXI (Enzyme Research Lab, Canada) to FXI-deficient plasma diluted 1:8 in ECD; purchased Enzyme Research Lab, Canada; host or cells: FXI purchased; ADAMTS13 endogenous in plasma from patients with congenital FXI deficiency
Protocol: An assay was developed for measuring the presence of ADAMTS13/FXI complexes by ELISA analysis. A standard curve was generated using PNP (Saturn Biomedical), diluted 1:4 in ECD buffer (PBS/3% BSA/gentamicin), and then serially diluted 1:2 in ECD buffer. Assays were performed in duplicate, using 100 μl of each standard dilution in Immulon 4 HBX 96-well microtiter plates (ThermoLabsystems, Franklin, Mass.) that were coated with goat anti-human ADAMTS13 antibody raised against a synthetic peptide sequence in the CUB1 domain (SC21510; Santa Cruz Biotechnology, Santa Cruz, Calif.) at a concentration of 1 μg/ml in 3-(N-morpholino)propanesulfonate (MOPS) coating buffer (0.1 M MOPS, 0.15 M NaCl, 0.05 M CaCl2, 0.066 M Trehalose, 0.02% NaN3, pH 7.4). Microtiter plates were blocked with SuperBlock (Pierce Chemical Co., Indianapolis, Ind.).
Standards and diluted samples were incubated in coated microwells for 2 hours at room temperature, with mixing. […] The optical density of the mixture was then read in a spectrophotometer at 450 nm.
Formation of ADAMTS13/FXI complexes was measured after addition of FXI (Enzyme Research Lab, Canada) to FXI-deficient plasma diluted 1:8 in ECD. […] The plasma containing newly formed ADAMTS13/FXI complexes were then added to anti-ADAMTS13 antibody-coated microwells and quantified, as described in Example 16.

[1] = biological target: T2, recombinant ADAMTS13 (recADAMTS13) (Homo sapiens, UniProt Q76LX8); experiment: Recombinant ADAMTS13 activity in tissue culture supernatants using fluorescent substrate; assay type: biochemical; conditions: 0.8 mM substrate, 50 mM Tris-HCl pH 8.0, FIG. 5
T2 construct: made in house; host or cells: HEK 293 cells; crude culture supernatant supplied by Dr. David Ginsburg, University of Michigan
T2 sequence (Q76LX8 75-1427): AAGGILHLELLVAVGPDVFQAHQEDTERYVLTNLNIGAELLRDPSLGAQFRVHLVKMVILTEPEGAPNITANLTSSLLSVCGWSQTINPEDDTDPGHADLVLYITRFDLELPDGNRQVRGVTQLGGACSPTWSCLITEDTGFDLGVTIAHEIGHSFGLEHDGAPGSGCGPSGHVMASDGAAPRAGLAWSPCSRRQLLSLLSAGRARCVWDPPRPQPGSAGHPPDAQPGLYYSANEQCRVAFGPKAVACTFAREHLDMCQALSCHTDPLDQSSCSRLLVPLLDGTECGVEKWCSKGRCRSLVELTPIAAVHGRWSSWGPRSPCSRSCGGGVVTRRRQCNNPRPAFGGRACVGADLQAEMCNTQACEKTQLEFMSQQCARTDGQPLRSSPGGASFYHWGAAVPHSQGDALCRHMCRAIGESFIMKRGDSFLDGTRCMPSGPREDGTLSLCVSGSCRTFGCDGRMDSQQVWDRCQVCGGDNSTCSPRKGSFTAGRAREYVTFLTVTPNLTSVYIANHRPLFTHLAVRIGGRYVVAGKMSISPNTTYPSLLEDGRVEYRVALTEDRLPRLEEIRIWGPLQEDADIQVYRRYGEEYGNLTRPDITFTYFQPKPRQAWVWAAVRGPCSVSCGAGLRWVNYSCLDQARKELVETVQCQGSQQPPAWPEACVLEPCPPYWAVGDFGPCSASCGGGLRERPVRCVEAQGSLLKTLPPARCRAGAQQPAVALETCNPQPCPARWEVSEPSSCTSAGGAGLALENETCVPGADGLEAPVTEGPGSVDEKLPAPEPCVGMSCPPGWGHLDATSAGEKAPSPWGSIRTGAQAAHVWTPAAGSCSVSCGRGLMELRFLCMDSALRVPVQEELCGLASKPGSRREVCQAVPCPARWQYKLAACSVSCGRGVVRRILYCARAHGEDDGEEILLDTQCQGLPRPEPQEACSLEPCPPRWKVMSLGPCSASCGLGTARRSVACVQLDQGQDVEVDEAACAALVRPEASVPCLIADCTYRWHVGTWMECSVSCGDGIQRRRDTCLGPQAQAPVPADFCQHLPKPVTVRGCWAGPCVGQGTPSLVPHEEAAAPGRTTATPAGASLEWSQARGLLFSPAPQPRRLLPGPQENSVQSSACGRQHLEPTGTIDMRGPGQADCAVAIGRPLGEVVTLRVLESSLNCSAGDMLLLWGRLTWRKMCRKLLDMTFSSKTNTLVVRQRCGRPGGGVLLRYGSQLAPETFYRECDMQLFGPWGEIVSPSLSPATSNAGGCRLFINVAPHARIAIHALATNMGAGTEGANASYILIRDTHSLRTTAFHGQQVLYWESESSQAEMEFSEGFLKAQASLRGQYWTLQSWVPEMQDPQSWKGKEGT
Excerpt: HEK 293 cells were transfected with a vector encoding ADAMTS13. Cell culture supernatant from the transfected HEK 293 cells, containing recombinant ADAMTS13, was generously provided by Dr. David Ginsburg (University of Michigan, Mich.). Mock transfected cell supernatant with no recombinant ADAMTS13 was also provided as a control.
Fluorescence signals were compared between tissue culture supernatant from HEK 293 cells transfected with a viral vector coding for recombinant ADAMTS13 (“recADAMTS13”) and supernatant from mock transfected HEK 293 cells, as a control. (Culture supernatants were supplied by Dr. David Ginsburg, University of Michigan.) Varying amounts of the two culture supernatants were added to 0.8 mM Suc-Leu-Leu-Val-Tyr-AMC (SEQ ID NO: 2) fluorescent substrate in 50 mM Tris-HCl pH 8.0 in a total volume of 100 μl.

ADAMTS13 = ADAMTS13 activity in PRP using peptidyl substrates; assay type: biochemical, human; conditions: 0.8 mM substrate, 37° C., FIG. 3
Protocol: Blood was collected by venopuncture into collection tubes containing 0.12 M sodium citrate, an anti-coagulant. The citrated blood was centrifuged at 700 rpm for 10 minutes. The supernatant was removed and saved as the platelet rich plasma (PRP) fraction. The PRP was centrifuged at 10,000 rpm for 20 minutes. The supernatant was removed and saved as the platelet poor plasma (PPP) fraction. The pellet contained the platelets, which were washed by resuspending in 10 mM Tris-HCl pH 8.0 buffer and centrifuging at 10,000 rpm for 10 minutes. The isolated platelets were resuspended in buffer and used in experiments.
As discussed above, Furlan et al. reported that some peptidyl-pNA moieties, such as XLY-pNA and XVY-pNA, were not substrates for ADAMTS13. We prepared LVY-pNA and tested it for its ability to be cleaved by ADAMTS13. The results shown in FIG. 2 confirm the findings of Furlan et al., i.e., LVY-pNA was not cleaved by ADAMTS13.
In order to determine the effect of modifying the length of the peptide sequence conjugated to the AMC fluorochrome, normal PRP (20 μl) was incubated at 37° C. with a final concentration of 0.8 mM Suc-LLVY-AMC or LVY-AMC in 10 mM Tris-HCl pH 8.0 buffer in total volume of 200 μl. Fluorescence was measured using a microtiter fluorophotometric plate reader (Ex 360 nm/Em 460 nm).

human FXI = human FXI (Homo sapiens, UniProt P03951); experiment: Binding of recombinant ADAMTS13 to FXI-coated plates (ELISA); conditions: FXI coated at 1 μg/ml, 1 hour, detection anti-ADAMTS13 TSP5-7 rabbit polyclonal, OD 450 nm, FIG. 22
Protocol: Binding of recADAMTS13 to immobilized FXI was measured using microplates coated with human FXI at a concentration of 1 μg/ml. RecADAMTS13 in solution was added to the FXI-coated microwells and incubated for 1 hour. ADAMTS13/FXI complexes were measured using ELISA. Specifically, after incubation with recADAMTS13, plates were washed with PBS +1% Tween, followed by incubation for 1 hour with anti-ADAMTS13 TSP5-7 rabbit polyclonal antibodies (1 μg/ml). Plates were washed again in PBS+1% Tween, followed by addition of a murine anti-rabbit IgG antibody conjugated to HRP. The detection antibody was incubated for an hour at room temperature. After washing the excess detection antibody from the plates, the TMB substrate was added, incubated for 10 minutes, after which 0.5 M sulfuric acid was added to terminate the reaction. The optical density of the mixture was measured at 450 nm on a spectrophotometer (FIG. 22).

Substance: FXI: Factor XI zymogen (Enzyme Research Lab, Canada)
- ADAMTS13/FXI complexes formed upon addition of FXI (ADAMTS13/FXI complexes): increasing amounts of ADAMTS13/FXI complexes were formed

Substance: Suc-Leu-Leu-Val-Tyr-AMC (Suc-LLVY-{AMC}; SMILES Cc1cc(=O)oc2cc(NC(=O)[C@H](Cc3ccc(O)cc3)NC(=O)[C@@H](NC(=O)[C@H](CC(C)C)NC(=O)[C@H](CC(C)C)NC(=O)CCC(=O)O)C(C)C)ccc12) [Suc-LLVY-AMC, fluorogenic peptidyl substrate from Bachem Bioscience Inc]
- cleavage of fluorescent substrate by recADAMTS13 in supernatant of transfected HEK 293 cells versus mock [1]: cleavage of the substrate by recADAMTS13
- cleavage of peptidyl-AMC substrate by ADAMTS13 in PRP (ADAMTS13; normal PRP 20 μl, 10 mM Tris-HCl pH 8.0, Ex 360 nm/Em 460 nm): cleaved
- fluorescence signal over time as compared to the LVY-AMC substrate (ADAMTS13; normal PRP): higher signal over time

Substance: recADAMTS13: recombinant ADAMTS13 in culture supernatant of transfected HEK 293 cells
- complex formation with immobilized FXI (human FXI): stable complex
